Assay results as given in patent US20040014151A1 (published 2004).

Biological target: the molecule itself
Assay: SEC-HPLC of IMAC-purified protein from cpcE or cpcF mutant
Protocol: Size Exclusion Chromatography-High Performance Liquid Chromatography—Although IMAC-purified and dialyzed samples (see above) could be used with no obvious effect on the results, proteins to be analyzed by SEC-HPLC were generally dialyzed again in 50 mM Na—PO₄ pH 7.0, 50 mM NaCl, 0.5 mM DTT. […] A mobile phase of 50 mM Na—PO₄ pH 7.0 was flowed at 0.8 ml min⁻¹ through Bio-Sil 250 (Bio-Rad Laboratories, Hercules, Calif.) guard column (80×7.8 mm) and column (300×7.8 mm) maintained at 25° C. For analytical separations, 50 to 200 μg of phycocyanin was loaded [based on absorbance at the peak near 621 nm and using a molar extinction coefficient of 290,000 M⁻¹ cm⁻¹ per monomer (29)]. Molecular size calibration utilized bovine gamma globulin, 158 kDa; chicken ovalbumin, 44 kDa; horse myoglobin, 17 kDa; vitamin B12, 1.35 kDa (Bio-Rad gel filtration standards). The void volume was determined with blue dextran, 2000 kDa (Pharmacia Biotech, Piscataway, N.J.). Preparative separations were performed with loads of 0.5 to 1 mg phycocyanin.

B1: His-tagged C-phycocyanin β subunit, holo-HTβ (other, Anabaena sp. PCC7120, UniProt P07120 1-173, looked up)
chain: MTLDVFTKVVSQADSRGEFLSNEQLDALANVVKEGNKRLDVVNRITSNASAIVTNAARALFEEQPQLIAPGGNAYTNRRMAACLRDMEIILRYVTYAILAGDASVLDDRCLNGLRETYQALGTPGSSVAVGVQKMKDAAVGIANDPNGITKGDCSQLISEVASYFDRAAAAVG
modifications: two phycocyanobilins (PCB); methylated Asn72
notes: Encoded by pBS262, expressed in Anabaena sp; also called An262; not shown: 24-residue N-terminal extension with 6xHis tag and TEV protease site
  binding result: binds
